From paper PMC9482650, “Quantitative fragmentomics allow affinity mapping of interactomes” (Nature Communications, 2022)

T1: PDZD11, Q5EBL8
T1 sequence (Q5EBL8 42-139, limits assumed, looked up): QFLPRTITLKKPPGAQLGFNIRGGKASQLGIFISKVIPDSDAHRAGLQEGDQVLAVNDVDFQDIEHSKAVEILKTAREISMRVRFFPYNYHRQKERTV

T2: PDZD2_1, O15018
T2 sequence (O15018 80-192, limits assumed, looked up): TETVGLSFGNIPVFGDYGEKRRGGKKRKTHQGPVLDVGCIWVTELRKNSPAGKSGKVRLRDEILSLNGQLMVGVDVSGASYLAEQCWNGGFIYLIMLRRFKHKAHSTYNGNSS

T3: PARD6G, Q9BYG4
T3 sequence (Q9BYG4 153-261, limits assumed, looked up): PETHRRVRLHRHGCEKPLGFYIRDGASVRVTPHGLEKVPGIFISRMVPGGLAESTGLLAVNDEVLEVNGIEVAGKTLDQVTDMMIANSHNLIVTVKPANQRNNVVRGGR

T4: PTPN13_4, Q12923
T4 sequence (Q12923 1783-1878, limits assumed, looked up): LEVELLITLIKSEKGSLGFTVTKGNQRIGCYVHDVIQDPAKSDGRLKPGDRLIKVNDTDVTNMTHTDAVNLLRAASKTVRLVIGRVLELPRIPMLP

T5: USH1C_2, Q9Y6N9
T5 sequence (Q9Y6N9 206-303, limits assumed, looked up): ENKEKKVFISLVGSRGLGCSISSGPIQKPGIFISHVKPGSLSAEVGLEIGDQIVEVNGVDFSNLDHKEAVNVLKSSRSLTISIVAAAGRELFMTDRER

T6: MPP5, Q8N3R9
T6 sequence (Q8N3R9 251-346, limits assumed, looked up): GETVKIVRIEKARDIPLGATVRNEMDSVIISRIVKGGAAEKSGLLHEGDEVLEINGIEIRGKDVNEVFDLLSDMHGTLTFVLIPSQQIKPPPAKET

T7: LIN7C, Q9NUP9
T7 sequence (Q9NUP9 88-185, limits assumed, looked up): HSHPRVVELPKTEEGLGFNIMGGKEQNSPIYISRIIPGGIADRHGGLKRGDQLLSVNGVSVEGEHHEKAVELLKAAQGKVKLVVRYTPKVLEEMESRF

T8: MPDZ_3, O75970
T8 sequence (O75970 372-473, limits assumed, looked up): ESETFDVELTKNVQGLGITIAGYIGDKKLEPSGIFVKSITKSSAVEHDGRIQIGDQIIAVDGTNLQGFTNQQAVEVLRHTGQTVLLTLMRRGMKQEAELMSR

T9: PDLIM3, Q53GG5
T9 sequence (Q53GG5 1-94, limits assumed, looked up): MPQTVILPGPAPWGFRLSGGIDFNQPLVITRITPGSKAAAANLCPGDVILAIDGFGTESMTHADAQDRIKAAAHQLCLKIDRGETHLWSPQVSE

T10: PDZD2_4, O15018
T10 sequence (O15018 723-823, limits assumed, looked up): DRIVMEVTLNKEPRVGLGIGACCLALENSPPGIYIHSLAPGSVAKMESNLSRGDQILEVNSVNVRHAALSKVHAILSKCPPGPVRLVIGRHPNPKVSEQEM

T11: MPDZ_7, O75970
T11 sequence (O75970 1146-1253, limits assumed, looked up): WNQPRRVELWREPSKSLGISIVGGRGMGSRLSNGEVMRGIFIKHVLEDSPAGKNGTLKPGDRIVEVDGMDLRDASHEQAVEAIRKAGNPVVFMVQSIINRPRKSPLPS

T12: DFNB31_2, Q9P202
T12 sequence (Q9P202 274-371, limits assumed, looked up): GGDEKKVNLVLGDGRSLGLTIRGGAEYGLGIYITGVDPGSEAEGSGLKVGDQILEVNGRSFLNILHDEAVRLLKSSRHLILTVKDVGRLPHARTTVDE

T13: NHERF3_2, Q5T2W1
T13 sequence (Q5T2W1 129-225, limits assumed, looked up): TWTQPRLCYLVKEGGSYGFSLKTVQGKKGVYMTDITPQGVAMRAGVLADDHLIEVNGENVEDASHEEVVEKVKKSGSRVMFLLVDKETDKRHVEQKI


Key:
Test in all cases: holdup assay
Parameters in all cases: key: below the threshold = too weak to quantify, mostly under pKd 3.1 to 4
Settings in all cases: plain residues with an end cap or a label only (N-terminal biotin on a linker: ttds)
PDZD11, Q5EBL8 = molecular target: T1, PDZD11, Q5EBL8
PDZD2_1, O15018 = molecular target: T2, PDZD2_1, O15018
MAGI3_4, Q5TCQ9 = molecular target: MAGI3_4, Q5TCQ9
PREX1_1, Q8TCU6 = molecular target: PREX1_1, Q8TCU6
MAGI3_6, Q5TCQ9 = molecular target: MAGI3_6, Q5TCQ9
PARD6G, Q9BYG4 = molecular target: T3, PARD6G, Q9BYG4
NHERF2_1, Q15599 = molecular target: NHERF2_1, Q15599
PTPN13_4, Q12923 = molecular target: T4, PTPN13_4, Q12923
PDZRN4_2, Q6ZMN7 = molecular target: PDZRN4_2, Q6ZMN7
TJP1_1, Q07157 = molecular target: TJP1_1, Q07157
SCRIB_4, Q14160 = molecular target: SCRIB_4, Q14160
Inadl_7, Q8NI35 = molecular target: Inadl_7, Q8NI35
USH1C_2, Q9Y6N9 = molecular target: T5, USH1C_2, Q9Y6N9
MPP5, Q8N3R9 = molecular target: T6, MPP5, Q8N3R9
LIN7C, Q9NUP9 = molecular target: T7, LIN7C, Q9NUP9
MPDZ_3, O75970 = molecular target: T8, MPDZ_3, O75970
PDLIM3, Q53GG5 = molecular target: T9, PDLIM3, Q53GG5
PDZD2_4, O15018 = molecular target: T10, PDZD2_4, O15018
MPDZ_7, O75970 = molecular target: T11, MPDZ_7, O75970
DFNB31_2, Q9P202 = molecular target: T12, DFNB31_2, Q9P202
NHERF3_2, Q5T2W1 = molecular target: T13, NHERF3_2, Q5T2W1
DVL2, O14641 = molecular target: DVL2, O14641
CNKSR3, Q6P9H4 = molecular target: CNKSR3, Q6P9H4
Chain of CNKSR3, Q6P9H4 (Q6P9H4 203-303): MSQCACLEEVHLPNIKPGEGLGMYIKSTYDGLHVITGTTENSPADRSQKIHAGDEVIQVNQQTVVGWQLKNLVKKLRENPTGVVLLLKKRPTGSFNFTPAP

Chain of TJP1_1, Q07157 (Q07157 18-120): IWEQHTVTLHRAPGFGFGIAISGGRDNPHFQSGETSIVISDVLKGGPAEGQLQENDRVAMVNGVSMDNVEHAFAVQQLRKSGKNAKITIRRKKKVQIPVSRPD
Chain of DVL2, O14641 (O14641 260-359): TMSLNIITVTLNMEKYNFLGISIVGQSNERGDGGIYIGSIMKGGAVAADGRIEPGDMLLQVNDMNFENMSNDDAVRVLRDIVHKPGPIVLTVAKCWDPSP
Chain of PDZRN4_2, Q6ZMN7 (Q6ZMN7 389-498): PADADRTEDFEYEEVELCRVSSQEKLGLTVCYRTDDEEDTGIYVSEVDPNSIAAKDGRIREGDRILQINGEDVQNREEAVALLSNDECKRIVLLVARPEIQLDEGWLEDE
Chain of MAGI3_6, Q5TCQ9 (Q5TCQ9 1014-1103): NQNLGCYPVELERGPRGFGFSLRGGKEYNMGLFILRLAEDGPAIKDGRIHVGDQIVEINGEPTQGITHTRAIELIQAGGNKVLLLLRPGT
Chain of NHERF2_1, Q15599 (Q15599 9-91): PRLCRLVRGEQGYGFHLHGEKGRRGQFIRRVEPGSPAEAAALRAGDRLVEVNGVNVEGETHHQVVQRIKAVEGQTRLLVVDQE
Chain of Inadl_7, Q8NI35 (Q8NI35 1219-1332): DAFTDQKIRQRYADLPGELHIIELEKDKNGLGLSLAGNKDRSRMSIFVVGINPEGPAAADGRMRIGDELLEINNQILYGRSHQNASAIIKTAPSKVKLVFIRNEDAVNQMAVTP
Chain of MAGI3_4, Q5TCQ9 (Q5TCQ9 716-815): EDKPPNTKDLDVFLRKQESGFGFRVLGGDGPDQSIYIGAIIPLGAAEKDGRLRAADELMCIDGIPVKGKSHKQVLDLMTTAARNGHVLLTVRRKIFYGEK
Chain of SCRIB_4, Q14160 (Q14160 1095-1204): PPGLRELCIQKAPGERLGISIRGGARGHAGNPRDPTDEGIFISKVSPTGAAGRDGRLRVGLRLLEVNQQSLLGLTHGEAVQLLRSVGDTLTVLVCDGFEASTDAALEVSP
Chain of PREX1_1, Q8TCU6 (Q8TCU6 608-718): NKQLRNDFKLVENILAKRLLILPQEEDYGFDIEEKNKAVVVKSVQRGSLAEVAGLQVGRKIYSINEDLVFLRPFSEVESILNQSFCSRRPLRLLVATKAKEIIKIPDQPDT

Binder | pKd (PDZD11, Q5EBL8) | pKd (PDZD2_1, O15018) | pKd (MAGI3_4, Q5TCQ9) | pKd (PREX1_1, Q8TCU6) | pKd (MAGI3_6, Q5TCQ9) | pKd (PARD6G, Q9BYG4) | pKd (NHERF2_1, Q15599) | pKd (PTPN13_4, Q12923) | pKd (PDZRN4_2, Q6ZMN7) | pKd (TJP1_1, Q07157) | pKd (SCRIB_4, Q14160) | pKd (Inadl_7, Q8NI35) | pKd (MPP5, Q8N3R9) | pKd (LIN7C, Q9NUP9) | pKd (MPDZ_3, O75970) | pKd (PDLIM3, Q53GG5) | pKd (PDZD2_4, O15018) | pKd (MPDZ_7, O75970) | pKd (DFNB31_2, Q9P202) | pKd (NHERF3_2, Q5T2W1) | also measured
RLPKIKETTV [FRMPD4, Q14CM0] | below the threshold | below the threshold | below the threshold | 4.75 | below the threshold | below the threshold | below the threshold | below the threshold | 4.43 | below the threshold | 4.85 | below the threshold | below the threshold | 5.29 | below the threshold | 4.24 | below the threshold | below the threshold | 4.12 | below the threshold | pKd (USH1C_2, Q9Y6N9): below the threshold; pKd (DVL2, O14641): below the threshold; pKd (CNKSR3, Q6P9H4): 4.24
RHTTSTETAV [HPV30-E6, P36809] | below the threshold | below the threshold | below the threshold | below the threshold | below the threshold | below the threshold | below the threshold | below the threshold | 4.48 | below the threshold | 4.59 | below the threshold | below the threshold | 4.19 | below the threshold | below the threshold | 4.78 | below the threshold | below the threshold | below the threshold | pKd (USH1C_2, Q9Y6N9): below the threshold; pKd (DVL2, O14641): below the threshold; pKd (CNKSR3, Q6P9H4): below the threshold
SKPTRRETEV [HPV35-E6, P27228] | below the threshold | below the threshold | 3.76 | below the threshold | 3.81 | below the threshold | 3.77 | below the threshold | below the threshold | below the threshold | 3.78 | below the threshold | below the threshold | 3.76 | below the threshold | below the threshold | below the threshold | below the threshold | below the threshold | below the threshold | pKd (DVL2, O14641): below the threshold; pKd (CNKSR3, Q6P9H4): 3.57
RPLPRKVSQL [DOCK4, Q8N1I0] | below the threshold | below the threshold | 4.12 | below the threshold | below the threshold | below the threshold | below the threshold | below the threshold | 4.14 | below the threshold | below the threshold | 4.45 | below the threshold | below the threshold | below the threshold | below the threshold | below the threshold | below the threshold | below the threshold | below the threshold | pKd (USH1C_2, Q9Y6N9): below the threshold; pKd (DVL2, O14641): below the threshold; pKd (CNKSR3, Q6P9H4): below the threshold
RLQRRRETQV [HPV18-E6, P06463] | below the threshold | below the threshold | below the threshold | below the threshold | below the threshold | below the threshold | below the threshold | 4.03 | below the threshold | below the threshold | below the threshold | below the threshold | below the threshold | 4.17 | below the threshold | below the threshold | below the threshold | below the threshold | below the threshold | below the threshold | pKd (USH1C_2, Q9Y6N9): below the threshold; pKd (DVL2, O14641): below the threshold; pKd (CNKSR3, Q6P9H4): 4.1
QRQARSETLV [HPV59-E6, Q81964] | below the threshold | below the threshold | below the threshold | below the threshold | below the threshold | below the threshold | below the threshold | 4.42 | below the threshold | below the threshold | below the threshold | below the threshold | below the threshold | 3.87 | below the threshold | below the threshold | below the threshold | 4.28 | below the threshold | below the threshold | pKd (USH1C_2, Q9Y6N9): below the threshold; pKd (DVL2, O14641): below the threshold; pKd (CNKSR3, Q6P9H4): below the threshold
